Source: patent publication US20220380407A1

Tests used:
Assay in all cases: cell-based or functional assay
[1] = target: KLK5 (#1108-SE-010, R&D Systems) (UniProt Q9Y337)
[2] = target: recombinant N-terminal His-tag HGFA serine protease domain (UniProt Q04756)
[3] = target: matriptase (#3946-SE-010, R&D Systems) (UniProt Q9Y5Y6)
[4] = target: recombinant thrombin (#1473-SE-010, R&D Systems) (UniProt P00734)
human TMPRSS2 (human) = human TMPRSS2 (human) (UniProt O15393)
[5] = target: Factor Xa (#1063-SE-010, R&D Systems) (UniProt P00742)
Factor Xa (#1063-SE-010, R&D Systems), sequence (P00742 41-488 limits assumed): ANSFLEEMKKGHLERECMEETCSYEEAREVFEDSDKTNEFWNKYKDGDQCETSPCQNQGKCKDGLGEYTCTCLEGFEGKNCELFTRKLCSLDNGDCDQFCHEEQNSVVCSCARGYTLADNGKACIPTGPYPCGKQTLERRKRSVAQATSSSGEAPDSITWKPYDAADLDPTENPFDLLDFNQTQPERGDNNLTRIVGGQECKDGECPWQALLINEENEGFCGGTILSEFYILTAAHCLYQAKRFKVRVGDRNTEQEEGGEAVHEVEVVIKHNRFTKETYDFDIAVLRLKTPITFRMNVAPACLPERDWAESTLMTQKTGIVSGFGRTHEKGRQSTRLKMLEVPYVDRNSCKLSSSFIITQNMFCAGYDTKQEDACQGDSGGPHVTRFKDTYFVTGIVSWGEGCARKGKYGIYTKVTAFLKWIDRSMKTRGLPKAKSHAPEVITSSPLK

[6] = target: activated hepsin (#4776-SE-010, R&D Systems) (UniProt P05981)
activated hepsin (#4776-SE-010, R&D Systems), sequence (P05981 45-417 limits assumed): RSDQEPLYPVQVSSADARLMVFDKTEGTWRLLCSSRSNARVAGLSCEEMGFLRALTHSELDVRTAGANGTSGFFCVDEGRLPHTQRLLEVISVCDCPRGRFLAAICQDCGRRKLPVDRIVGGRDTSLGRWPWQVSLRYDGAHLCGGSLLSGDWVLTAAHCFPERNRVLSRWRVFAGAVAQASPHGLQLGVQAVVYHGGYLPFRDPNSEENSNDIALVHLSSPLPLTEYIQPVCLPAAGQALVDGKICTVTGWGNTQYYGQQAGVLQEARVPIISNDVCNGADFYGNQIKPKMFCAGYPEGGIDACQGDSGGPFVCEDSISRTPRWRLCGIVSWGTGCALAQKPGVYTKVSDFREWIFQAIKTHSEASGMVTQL

matriptase (#3946-SE-010, R&D Systems), sequence (Q9Y5Y6 615-855 limits assumed): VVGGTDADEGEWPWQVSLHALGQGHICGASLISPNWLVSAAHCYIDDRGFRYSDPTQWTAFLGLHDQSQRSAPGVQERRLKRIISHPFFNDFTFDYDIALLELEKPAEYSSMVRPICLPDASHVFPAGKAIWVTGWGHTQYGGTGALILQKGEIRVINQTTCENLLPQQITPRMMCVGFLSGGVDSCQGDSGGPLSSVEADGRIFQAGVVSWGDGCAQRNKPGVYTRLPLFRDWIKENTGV
recombinant N-terminal His-tag HGFA serine protease domain, sequence (Q04756 373-655, form in doubt): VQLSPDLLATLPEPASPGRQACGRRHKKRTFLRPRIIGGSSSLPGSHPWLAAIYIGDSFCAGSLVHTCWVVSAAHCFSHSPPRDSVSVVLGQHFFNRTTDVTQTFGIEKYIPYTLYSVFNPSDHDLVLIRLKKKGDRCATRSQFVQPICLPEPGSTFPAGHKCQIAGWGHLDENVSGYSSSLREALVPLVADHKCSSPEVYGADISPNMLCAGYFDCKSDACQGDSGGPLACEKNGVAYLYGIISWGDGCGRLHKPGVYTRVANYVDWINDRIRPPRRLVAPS
KLK5 (#1108-SE-010, R&D Systems), sequence (Q9Y337 23-293 limits assumed): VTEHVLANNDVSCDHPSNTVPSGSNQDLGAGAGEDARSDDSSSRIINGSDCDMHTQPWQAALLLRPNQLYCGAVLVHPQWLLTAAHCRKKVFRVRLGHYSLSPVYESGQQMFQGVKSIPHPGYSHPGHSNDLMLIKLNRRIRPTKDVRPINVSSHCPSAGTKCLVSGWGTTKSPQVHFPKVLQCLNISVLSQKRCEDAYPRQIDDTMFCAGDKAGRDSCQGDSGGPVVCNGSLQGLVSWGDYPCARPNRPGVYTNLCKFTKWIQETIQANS
human TMPRSS2 (human), sequence (O15393 whole entry): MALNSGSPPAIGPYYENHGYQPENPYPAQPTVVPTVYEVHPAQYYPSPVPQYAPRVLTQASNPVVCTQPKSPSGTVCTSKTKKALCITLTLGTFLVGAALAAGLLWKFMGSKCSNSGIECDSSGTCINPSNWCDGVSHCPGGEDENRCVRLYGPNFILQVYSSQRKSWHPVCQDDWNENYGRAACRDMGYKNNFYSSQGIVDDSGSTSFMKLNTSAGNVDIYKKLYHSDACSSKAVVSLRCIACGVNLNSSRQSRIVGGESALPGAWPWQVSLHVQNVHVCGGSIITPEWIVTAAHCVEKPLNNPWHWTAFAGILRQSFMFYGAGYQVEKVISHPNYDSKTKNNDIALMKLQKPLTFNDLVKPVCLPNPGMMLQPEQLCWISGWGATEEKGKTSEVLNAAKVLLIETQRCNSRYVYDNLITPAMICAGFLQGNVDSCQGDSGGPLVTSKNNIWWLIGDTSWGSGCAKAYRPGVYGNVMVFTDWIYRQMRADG

## Leupeptin (peptide)
[1]
  KLK5 IC50: > 20000 nM

## Cyclo(allylLY)R-kbt, VD4051 (peptide)
[2]
  HGFA (IC50 nM): > 20000 nM
  HGFA IC50: > 20000 nM
[3]
  Matriptase (IC50 nM): 80.2 nM
  Matriptase IC50: 14 nM
[4]
  Thrombin* (IC50 nM): > 20000 nM
Human TMPRSS2 (human)
  Calu-3 EC50: 565 nM
[5]
  Factor Xa* (IC50 nM): 8810 nM
[6]
  Hepsin (IC50 nM): 102 nM
  Hepsin IC50: 20 nM
